Assay results taken from patent US20180094062A1 (Hoffmann-La Roche, published 2018).

Key:
Assay in all cases: SPR Biacore T100, antibody captured, 25 C
[1] = target: T1, human recombinant HER3 Extracellular Domain (HER3 ECD) (human, UniProt P21860 20-643)
T1 construct: 68 kDa; also called human-Her3-ECD

[2] = target: T2, human Heregulin fragment (HRG) (human)
T2 construct: a 44 kDa homodimeric protein, expressed in FreeStyle 293-F cells; also called Heregulin beta (HRG)
T2 chain: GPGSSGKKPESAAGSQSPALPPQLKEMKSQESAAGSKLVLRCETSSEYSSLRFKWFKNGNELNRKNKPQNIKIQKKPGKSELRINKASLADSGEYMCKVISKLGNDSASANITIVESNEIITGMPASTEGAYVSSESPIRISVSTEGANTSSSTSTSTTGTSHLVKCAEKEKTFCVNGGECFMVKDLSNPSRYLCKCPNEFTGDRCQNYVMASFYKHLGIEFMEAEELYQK

[3] = target: T3, HER4 ECD-HRG complex (Heregulin-complexed Her-4 ECD) (human, UniProt Q15303 26-651)
T3 construct: Her-4 ECD incubated with a 5-fold molar excess of Heregulin
T3 sequence 1: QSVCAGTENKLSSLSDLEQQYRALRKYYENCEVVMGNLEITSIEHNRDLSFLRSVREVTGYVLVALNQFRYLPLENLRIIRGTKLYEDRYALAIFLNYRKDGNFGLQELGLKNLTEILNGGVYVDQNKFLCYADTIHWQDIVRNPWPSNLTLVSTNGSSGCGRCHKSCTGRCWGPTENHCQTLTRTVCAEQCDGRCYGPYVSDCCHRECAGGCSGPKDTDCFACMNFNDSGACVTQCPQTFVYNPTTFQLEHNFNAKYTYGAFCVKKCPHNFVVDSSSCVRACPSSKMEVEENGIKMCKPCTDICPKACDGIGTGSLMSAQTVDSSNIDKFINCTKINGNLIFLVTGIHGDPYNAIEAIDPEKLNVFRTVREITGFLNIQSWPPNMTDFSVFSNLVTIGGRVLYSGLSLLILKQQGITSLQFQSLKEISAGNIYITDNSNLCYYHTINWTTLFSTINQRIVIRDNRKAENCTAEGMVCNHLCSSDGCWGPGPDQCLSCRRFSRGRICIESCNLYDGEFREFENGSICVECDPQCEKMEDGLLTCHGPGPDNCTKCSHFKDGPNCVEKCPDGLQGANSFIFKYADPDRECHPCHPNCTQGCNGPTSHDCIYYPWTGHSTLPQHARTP
T3 sequence 2: T2 chain

[4] = target: T4, recombinant Thermus thermophilus SlyD FKBP-Her3 (TtSlyD-FKBP-Her3)
T4 construct: expressed in E. coli, the N-terminal methionine can be present or not; also called thermo SlyD-Her3; T.T.SlyD-Her3
T4 chain: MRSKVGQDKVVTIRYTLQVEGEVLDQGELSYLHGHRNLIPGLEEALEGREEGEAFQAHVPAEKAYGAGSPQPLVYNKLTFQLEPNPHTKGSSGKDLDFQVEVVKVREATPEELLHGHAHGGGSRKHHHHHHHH

- MR (Molar Ratio) [1]: 0.5
- binding result [2]: no binding (tested: 90 nM)
- binding result [3]: no binding (tested: 90 nM)
- MR (Molar Ratio) [4]: 1.4
B1: anti-HER3 antibody M-08-11 (antibody, V domains shown)
VH: QAYLQQSGAELMRPGASVRMSCQASGYTFTSYTIHWLKQTPRQGLEWIGAIYPRNGDFSYNQKFKDKASLTVDTSSSTAYMHLSSLTSEDSAVYFCARTINYGDWFAYWGQGTLVTVSA
VL: DIQMIQSPASLFVSEGETVIITCRASENIYSNLAWYHQKKGKSPQVLVYAAIKLADGVPLRFSGSGSGTQFSLKINSLQSEDFGSYYCQHFWGPPYTFGSGTNLEIK
notes: mouse monoclonal antibody from hybridoma, tested as hybridoma supernatant or as antibody; also called M-011
